In article PMC3553976 (Nucleic Acids Research, 2012):
Read-outs that look alike come from different tables or passages of the source.

T1: SF1^HH (residues 27–145) (human, UniProt Q15637 27-145)
T1 sequence: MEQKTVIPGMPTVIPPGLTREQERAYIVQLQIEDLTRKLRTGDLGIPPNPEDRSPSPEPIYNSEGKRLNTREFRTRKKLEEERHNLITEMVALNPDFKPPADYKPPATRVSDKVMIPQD

B1: U2AF65^UHM, C-terminal U2AF homology motif domain of U2AF65 (residues 372–475) (domain or fragment)
chain: GHPTEVLCLMNMVLPEELLDDEEYEEIVEDVRDECSKYGLVKSIEIPRPVDGVEVPGCGKIFVEFTSVFDCQKAMQGLTGRKFANRVVVTKYCDPDSYHRRDFW
B2: SF1-Δα2, SF1^2-320 with helix α2 deleted (Δ96–128) (domain or fragment, human)
chain: ATGANATPLDFPSKKRKRSRWNQDTMEQKTVIPGMPTVIPPGLTREQERAYIVQLQIEDLTRKLRTGDLGIPPNPEDRSPSPEPIYNSEGKRLNGTYKPPATRVSDKVMIPQDEYPEINFVGLLIGPRGNTLKNIEKECNAKIMIRGKGSVKEGKVGRKDGQMLPGEDEPLHALVTANTMENVKKAVEQIRNILKQGIETPEDQNDLRKMQLRELARLNGTLREDDNRILRPWQSSETRSITNTTVCTKCGGAGHIASDCKFQRPGDPQSAQDKARMDKEYLSLMAEL
B3: His6-tagged SF1^2-320 (domain or fragment, human, UniProt Q15637 2-320, looked up)
chain: ATGANATPLDFPSKKRKRSRWNQDTMEQKTVIPGMPTVIPPGLTREQERAYIVQLQIEDLTRKLRTGDLGIPPNPEDRSPSPEPIYNSEGKRLNTREFRTRKKLEEERHNLITEMVALNPDFKPPADYKPPATRVSDKVMIPQDEYPEINFVGLLIGPRGNTLKNIEKECNAKIMIRGKGSVKEGKVGRKDGQMLPGEDEPLHALVTANTMENVKKAVEQIRNILKQGIETPEDQNDLRKMQLRELARLNGTLREDDNRILRPWQSSETRSITNTTVCTKCGGAGHIASDCKFQRPGDPQSAQDKARMDKEYLSLMAEL
B4: SF1 (residues 1–260) (domain or fragment, human, UniProt Q15637 1-260, looked up)
chain: MATGANATPLDFPSKKRKRSRWNQDTMEQKTVIPGMPTVIPPGLTREQERAYIVQLQIEDLTRKLRTGDLGIPPNPEDRSPSPEPIYNSEGKRLNTREFRTRKKLEEERHNLITEMVALNPDFKPPADYKPPATRVSDKVMIPQDEYPEINFVGLLIGPRGNTLKNIEKECNAKIMIRGKGSVKEGKVGRKDGQMLPGEDEPLHALVTANTMENVKKAVEQIRNILKQGIETPEDQNDLRKMQLRELARLNGTLREDDNR
B5: pSF1, phosphorylated SF1 (residues 1–260) (domain or fragment)
chain: B4 chain
modifications: phosphoserine at 80 and 82
B6: SF1^2-320 with helix α1 deleted (Δ35–68) (domain or fragment, human)
chain: ATGANATPLDFPSKKRKRSRWNQDTMEQKTVIPGTDLGIPPNPEDRSPSPEPIYNSEGKRLNTREFRTRKKLEEERHNLITEMVALNPDFKPPADYKPPATRVSDKVMIPQDEYPEINFVGLLIGPRGNTLKNIEKECNAKIMIRGKGSVKEGKVGRKDGQMLPGEDEPLHALVTANTMENVKKAVEQIRNILKQGIETPEDQNDLRKMQLRELARLNGTLREDDNRILRPWQSSETRSITNTTVCTKCGGAGHIASDCKFQRPGDPQSAQDKARMDKEYLSLMAEL
B7: SF1^2-320 with the α1–α2 linker deleted (Δ75–90) (domain or fragment, human)
chain: ATGANATPLDFPSKKRKRSRWNQDTMEQKTVIPGMPTVIPPGLTREQERAYIVQLQIEDLTRKLRTGDLGIPPGTGKRLNTREFRTRKKLEEERHNLITEMVALNPDFKPPADYKPPATRVSDKVMIPQDEYPEINFVGLLIGPRGNTLKNIEKECNAKIMIRGKGSVKEGKVGRKDGQMLPGEDEPLHALVTANTMENVKKAVEQIRNILKQGIETPEDQNDLRKMQLRELARLNGTLREDDNRILRPWQSSETRSITNTTVCTKCGGAGHIASDCKFQRPGDPQSAQDKARMDKEYLSLMAEL
B8: SF1^ULM (residues 1–25) (peptide, UniProt Q15637 1-25, looked up)
chain: MATGANATPLDFPSKKRKRSRWNQD

Assays:
[1] = biological target: T2, SF1^NTD (residues 1–145) (human, UniProt Q15637 1-145); assay: ITC
[2] = biological target: T1, SF1^HH (residues 27–145); assay: ITC
[3] = biological target: T2, SF1^NTD (residues 1–145); assay: ITC; remark: listed apart in the source
[4] = biological target: T3, U2AF65^RRM123 (residues 147–475) (human, UniProt P26368 147-475); assay: native gel or EMSA
Target sequence in this assay (P26368 147-475, one chain of several): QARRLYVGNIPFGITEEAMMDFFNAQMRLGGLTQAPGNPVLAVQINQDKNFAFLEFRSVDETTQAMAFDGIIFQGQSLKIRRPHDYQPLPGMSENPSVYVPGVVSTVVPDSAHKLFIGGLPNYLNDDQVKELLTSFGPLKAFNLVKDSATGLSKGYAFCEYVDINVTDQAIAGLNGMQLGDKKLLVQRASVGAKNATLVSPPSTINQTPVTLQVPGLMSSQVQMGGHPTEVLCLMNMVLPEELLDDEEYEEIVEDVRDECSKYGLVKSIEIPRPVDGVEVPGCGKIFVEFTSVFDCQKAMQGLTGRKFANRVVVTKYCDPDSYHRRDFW

[5] = biological target: T3, U2AF65^RRM123 (residues 147–475); assay: ITC
[6] = biological target: B1; assay: ITC

Binder: B1
Kd [1]: 84 ± 23 nM
Kd [2]: > 100000 nM
Kd [3]: 85 nM

Binder: B2
binding result [4]: binds

Binder: B3
binding result [4]: binds

Binder: B4
Kd [5]: 114 ± 23 nM

Binder: B5
Kd [5]: 96 ± 32 nM

Binder: B6
binding result [4]: binds

Binder: B7
binding result [4]: binds

Binder: B8
Kd [6]: 127 ± 48 nM
